In the domain aggregation screens of Martell et al. (2025):

Assay: soluble fraction after stress (log2 fold change); higher = more stays soluble; pooled small domains, quantitative proteomics
Settings: stress: pH 4
Procedure, shortened: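 Values are log2 fold changes, and higher ones mean more of the domain stayed soluble. Each fold change reflects the soluble amount of a domain after acid stress and is taken as a measure of aggregation propensity. The stress was pH 4, applied to pooled custom libraries of small protein domains analysed by high-throughput quantitative proteomics.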

| Sequence | soluble fraction (log2) |
| --- | --- |
| HMKSKNRLTKSYLDSIPGVGRKRKSILLRYFGSIDQIKRASSEDIANVPGIGKITSDLVYNYFNQ | -0.23 |
| HMKSLAQELVDALGDRIRDGRLKVGDKLPSEAAIEAQYGVSRTVVREAISRLQAAGLVVTRHGIGTFIVGI | ≥ 0.43 |
| HMKSLLDQINGIGAIRKRALLNHFGSARAVESASLDEIKSVEGVEAKVAKKIYNFFHEYKNMLR | 0.0807 |
| HMKSLLSRREQEVLELVSRGFSYSEIAELKNLSVHTIQTHIKSLYGKLEVHSKMEAVLEATRMGLLPQ | -1.12 |
| HMKSSLAKNLETLMQERQISQTRLSKISGVSQSYIFKILNDQIKKPSLDTLEKLATALDSTVAQLNH | 0.191 |
| HMKSSTEIIYSDFLREVSNGQISEVTIQGDFVRGLFLSGSSFQTYAPKDSNLINILRDKKVRIKVHPP | -0.11 |
| HMKSTELSIIEALRVLGLKHGASQDSIKKSYRRLVKQHHPDLGGSADSFRKVNEAYQLLIMN | 0.0586 |
| HMKSVILQLHPETLRWIREEAQADMADASVIQLLNDWELGTKKPTLSQVQKLSHETHIPFGYFFLKEKPA | -0.203 |
| HMKSVQIPQSITVKEFSQAIEVSVADVIKKLMSMGVMVSQNKEINVDTAILVGEEFGVTVNVA | -0.0481 |
| HMKSVTVIFKESGNVVSSKKLSVVATAQYVDKSRITAPAGYRIATTDSKLKISENNTVTVEVK | -0.1 |
| HMKSYTYNPNYLSDYNAYRLGIPLEALERLQLHRSTGRYVNSLSDFQSVTGISDSLKHSLSSSLRFPN | -0.564 |
| HMKTDLQIQQDVMAELKWEPKVNAAHIGVEVKHGVVTLSGHVDSFAEKWNAEQAAKRVAGVKFIAIELDV | -0.0349 |
| HMKTEIKSPLPGIVLKIFVRTGEYVDKNQRLFSLEAMKMENEIKAERAGVIAGIRISEGQSVLQDEVIMEM | -0.288 |
| HMKTFQSYQTTSMSNVNLRKRANGTSTILKRIKVGDTVTVVGKSGNYYQIQFDGKEGYALIKYIDGTDSGA | -0.107 |
| HMKTFSTRLIALREAIGVNQSELARRVGVTPQAVQKWESGANGPRGKRLEKLASELRSTVGYLVSGEGDG | 0.0382 |
| HMKTGAKLKNLRKMKKLSQEEVAKVLNLSYSTLSRWENDTRIPTYEDLFKLGQFYGVSVDYLSDPN | -0.853 |
| HMKTGNIITVSLVWKGKYYMIRMFFPSASRPTRSDVQNEIEKVYPGSKLSTFSVSDYEPGQPLLQV | -0.092 |
| HMKTGNPYAQRNTADMYNYGRGIEKDSYLAFVWYFAAYKQGNDNAKPQIDSITASGHLSPNQQLHAKIE | -0.304 |
| HMKTIQVGSTVRVNQGAKTYSGGGLASFVYKRNHKVSQLQGDRAVITYEGTVVAAVHVSDLSLIH | -0.801 |
| HMKTLELIAAIRKRIAGGYAGADGRLPNIGEIAKDFSVSPMTAQKAVRALVEAGVLTSTRRKGVFLKQPAS | 0.354 |
| HMKTLGMDKGVNIALNDAGLRAEDVSNLSAHYDTEDGVPVYEIKFTAGGFSYEYQIKASDGTIIEADRDAA | -0.0393 |
| HMKTMAVYPVGTRVLTSDGEIGVVEKQNSEAPERPVIKILKGADGHDYEKPDFKDLMKILTLFIVDTI | 0.0457 |
| HMKTMSLSSIEKAIYKTKYENEPTSQRLSRIESSVFGTNFSQDSESERIARISSAINAQKSAK | 0.22 |

| Sequence | soluble fraction (log2) |
| --- | --- |
| HMKTMTTIRKGSRGDTVATLQRKLNLIADGIFGPITDEAVRDFQKSHGLAVDGIVGPKTWAALGVGS | 0.354 |
| HMKTNQINVSGLSKEKNFEVLESLDVYKFYNLFFLNKIKIDQLINSYNHIDNYSVFKKYPSSLIVKLSE | -0.0619 |
| HMKTPETSEYVVQAGDSLRRILTERYGAKEQDLPYLYRQFRLLNPKVSSLDNIHAGTKVRIPLVASVL | -0.0112 |
| HMKTPRKVFTVLIRNTEYDVYDIDGKEHQGYNDTPKTWWLYHSERLPEGMIPPIDSDSWKPYSVGT | -2.19 |
| HMKTTKESLLEYIQREVFTDSIHKEGLSTNEIADAFQIQRSNVSSLLNTLVKEGKLEKTTGRPVLYRIPEK | 0.0777 |
| HMKVEFDAMDKRILELMAKEYDTVLMARHLPLTPIVIDVRKKRIREVLNLPDATDAEIVIEAKEKDII | -1.47 |
| HMKVEIVRVVKDIHIGDEITKDMVRTVEVGGYNLPDGVVKDTATVIGRFASADMVPGDYIISSKIADAP | 0.0866 |
| HMKVELSENEKIIYDLLSNQEVLLSEIKDKAELSNKAWDKSTKSLRKLGLVIVEKKDDNIYISKS | 0.368 |
| HMKVGEIIKAKREELKIPLVNFAKELDISQGYLSQIENGIKTNPNLDIILKIIHRLDIDLAMLL | -1.02 |
| HMKVIAEESYRILVDAIEKLPPQMKSIMQLALEGKSNPEIAETLNISGETVHSQKKIAYRKLRVYLKD | -0.144 |
| HMKVIETKYNTYVVKSGDTLYSVAKKYGISVTELKEINDLSNNTLSIGQKLLVPATTIIIDE | -0.525 |
| HMKVNMIIVMKPGARETDIQEVSNVLKSAGLGVHISKGTERTIIGVIGDKRLLNGIPLDLMHGVDKLVPIM | -0.0619 |
| HMKVNQFEVEGNQRYSTEEIAKASGVSKGDNLFLVNKTETARKLLDELAYVRSVNIKRKLPDTLVITVAE | 0.331 |
| HMKVPDVQYMNKDSAIEALTANELKYTIVEAENENVAAGVVISQSVERDSQVAPGTSVELVVSTG | -0.741 |
| HMKVQEMTANSFLTQWEAGNVKTLDILPEGIIKGELNDGTKFQLYYSSAAGLIDDVKKNPEKFANTTVSEK | -0.238 |
| HMKVQEVDYGTFLTMVDEGKVNQVDIENSKQITFNTKGDKNKVYITGQVNDPELVNRLYKAGVEFSQEIP | -0.674 |
| HMKVSNWYFNGAPSATTPPTSQWTTEKDKKAHIGDTFTSLDKSPSPNAGKSWRYTPSYTWEEIV | 0.0965 |
| HMKVSRTAVKLHHANAVEVAKKLQPLFVVGDVQIEPVKDAGIILLKGPASTLADLRESIVQMDHTA | -0.309 |
| HMKVTRWEDTGMKPAEAQEWQHYDFKPQEAMNWRDAGFVPLVARTWSDKGFDASEAQAWRDSVRNS | 0.123 |
| HMKVVEKHIVPQIQNPIRLQEYASSIFKTITTRSGIKKAIKKQLILLNRKPANTGDWIKEGQLLELLAEE | -0.569 |
| HMKVYIKDISDLSDKLKSLLIENDIDDSNKLFEVEDQVLLEIKGLGSKTIDKIKDIVTEYLKKNN | -0.38 |
| HMKVYPIMEAIANNNIELVKLLLEYHADLNIKDSNGNTPLALAKETGAKEVEDLLLQWMKQHT | -0.834 |
| HMKWGDTPTVEVPNLIGMKKKDLQTQLVDLKLDISGDGEKVIKQSPEAGAKVKEGSKIRIYFG | -0.0575 |

| Sequence | soluble fraction (log2) |
| --- | --- |
| HMKWYDSDKGFGFLSQEEGEDVYVRSSALPAGVEGLKAGQRVEFGIASGRRGPQALSL | -0.71 |
| HMKYKKYKLLKDLPTFKAGQLAYISKTGNLIAGTPENQKTTETGLIIMIYHETTLKKFPNILTEWFEEIE | -1.17 |
| HMKYNGDRPVFNDDVAWAKWMLENPAKITSHDKENLSSMLKKPEVVMLFEAEDLSVPDLRTLAKE | -0.349 |
| HMKYNYEAQQSDELSLVKGSRIHVLEKSSDGWWKGEIDNVVGWFPS | -0.102 |
| HMKYRLLGENLQTIRKARGMKQQELADQIGINMQSLSKIERGLNYPTFETLEKIMNALGITPNELLSG | -0.798 |
| HMKYRPGDVVTLRVARMGEMGAFLDAGTGNTNDDILLHKMQQTEEIKAGQDVKVYLYLDPNRRLTASMKL | -0.0269 |
| HMKYSNDEVERDLYVRGVIYQIGDLVENKLDGTSGEVVRRGPNYVQYTDGENFYKAFLSALQEQK | -1.04 |
| HMKYSYAELTKLQEQIAQDRNAPLTVPNALGIGLDERNNVIEITVNIADEAAAKAYYLQKYGDRISLKTTD | -0.243 |
| HMKYTEEIFNILSRGGFISANSVSSTVKRYYDALEEDFTEYYDYYKGIGFYLEAGNGYYLFTR | -0.064 |
| HMKYTVKSPLPGVIMSVLVKVGDTVKASDTVISLEAMKMENAIHAGRDGKVTSIDVNVGDSVLEGHTLVTI | -1.04 |
| HMLAAGTPLTVVTESSNLNIRQEPSTEAAVVGKAAKGEIVTLVEQTSGEWWKVSTKDGEEGYAYSRYL | -0.809 |
| HMLAAGTSLTVDTESSNLNIRQEPSTEGVILGKAAKGEVVTLVEQSSDEWWKIKTKDGEEGYAYARYLR | 0.0235 |
| HMLADRANMAPAALRQIMTAIDGGNVTPKQIESATGMAHATVARALRKMLDDGLIANDGKGRYTVLT | 0.238 |
| HMLADTNIHTIALKHRLANEVVEQVRPFLPETATIRAYDNMLILKSDRATLANVEQLIKKLDT | 0.228 |
| HMLALVREQIERNVSNPTDEDIRKIRHDVMEVITRAGADAATVDIAIEIDSQKNILRAIATGATEL | -1 |
| HMLAMHVVESVGGAEQFTKLQNFAKTQNADYQKMWNDTMNSGNVLAIKTMLSGIQSDMIAVQ | -0.466 |
| HMLAQDVIVKQDGGTILSKVLEIGTQEIAYKKWNSQDGPVYKIAKDQVLSVNYQNGEVDRFA | -0.233 |
| HMLAQISDEGAIGAVVARVLDAHPNEVARYHAGEEKVAKFLMGAAMRELRGKGDPAVVQRLLSEGLDARRV | 0.294 |
| HMLARPTANELVKEMQRRAKEQRTELPPDAARDLLERSGQDQFLLGNEVDKLAALSGYTTITREMVAQAGT | 0.0328 |
| HMLAVPADFAEKLQSLRSQLASDDLDASDAFGRLQPFIKALYPAQLEALRKAVDDFDFVEATRLIDQLPQ | -0.954 |
| HMLAYQRTYEKILEDLRNDVYPVNSLLPPEPKLEEIYHVSRTTVRRAIAQLADEGYVKVKQGYGTVVLKN | 0.22 |
| HMLDEPPVSQTLTTYDREHMALYLRLLDSARDGADWREAVQILFGLDPTRDPLRSRHVHDTHLARARWM | -0.452 |
| HMLDFGQEDSEAVSEIILVLGRYWMDFSHKKYPEAEGSALRHKGISHIFTVLKPYLTSATAQLIEQRLQQ | -0.398 |
